Source: US20110086767A1, “MUTANTS OF GLYCOSIDE HYDROLASES AND USES THEREOF FOR SYNTHESIZING COMPLEX OLIGOSACCHARIDES AND DISACCHARIDE INTERMEDIATES” (Institut Pasteur, priority 2008, published 2011)

How the values were obtained:
Type in all cases: biochemical
[1] = Product profile with 146 mM sucrose alone (HPAEC); conditions: t=24 h
Description: Comparison of products synthesized by wild-type and AS variants. Reactions were performed in the presence of 146 mM sucrose alone or supplemented with 146 mM acceptor. The purified wild-type or mutated GST/AS were employed at 0.5 U/mL. The reactions were stopped by heating at 95° C. for 5 min. The final mixture was centrifuged at 18 000 g for 10 min, filtered on 0.22 μm membrane and analyzed by HPLC, as previously described.
Soluble and insoluble oligosaccharides produced during the reaction were identified by HPAEC using a Dionex Carbo-Pack PA100 column at 30° C. Before analysis, the insoluble fraction was solubilized in KOH at a final total sugar concentration of 10 g/kg. Mobile phase (150 mM NaOH) was set at 1 mL/min flow rate with a sodium acetate gradient (going from 6 to 500 mM within 120 min). Detection was performed using a Dionex ED40 module with a gold working electrode and an Ag/AgCl pH reference. Note that α-D-GlcpNAc-OAll (acceptor) and its derivatives are not oxidable products and thus are not detectable by HPAEC. Sucrose, glucose, fructose, α-D-GlcpNAc-OAll (acceptor) and its derivatives (glucosylation products) were quantified by HPLC, as previously described

[2] = Kinetics of F290K and ASNPwt towards sucrose
Description: Enzyme assays were carried out in a total volume of 2 mL containing pure enzyme (0.115 mg and 0.106 mg when using ASNPwt and F290K, respectively). Catalytic efficiency (Eff=kcat/KM) of ASNPwt and F290K variant was determined with both sucrose (D=Donor) and α-D-GlcpNAc-OAll (A=Acceptor) as variable substrates. […] For the determination of the catalytic efficiency for A, D was held constant at 250 mM and A was varied between 0 and 250 mM. Experiments were performed until A and D solubility limits were reached. For each experiment, the reaction velocity corresponding to the acceptor glucosylation was determined by the formation of α-D-Glcp-(1→4)-α-D-GlcpNAc-OAll (called Vi(Dp2)), corresponding to the kinetics of the reaction of interest.
(§1) Initial velocities were fitted to the Michaelis-Menten equation using Sigma-Plot. As saturation was not achieved with the mutant, efficiency was calculated by linear regression analysis of the velocity versus substrate concentration plot. Aliquots (200 μL) were removed between 0 and 60 min (at which time product formation was still linear with respect to time), heated at 95° C. for 5 min and centrifuged at 18 000 g for 5 min. The final mixtures were filtered on a 0.22 um membrane and analyzed using HPLC material previously described. […]

[3] = Kinetics of F290K and ASNPwt in the presence of acceptor α-D-GlcpNAc-OAll
Description: Enzyme assays were carried out in a total volume of 2 mL containing pure enzyme (0.115 mg and 0.106 mg when using ASNPwt and F290K, respectively). Catalytic efficiency (Eff=kcat/KM) of ASNPwt and F290K variant was determined with both sucrose (D=Donor) and α-D-GlcpNAc-OAll (A=Acceptor) as variable substrates. For the determination of the catalytic efficiency for D, A was held constant at 250 mM and D was varied between 0 and 600 mM. For the determination of the catalytic efficiency for A, D was held constant at 250 mM and A was varied between 0 and 250 mM. Experiments were performed until A and D solubility limits were reached. For each experiment, the reaction velocity corresponding to the acceptor glucosylation was determined by the formation of α-D-Glcp-(1→4)-α-D-GlcpNAc-OAll (called Vi(Dp2)), corresponding to the kinetics of the reaction of interest.
as §1

[4] = Enzymatic glucosylation of D-GlcpNAc derivatives: D-GlcNHTCA; conditions: sucrose:acceptor 1:1 (146 mM); estimated according to peak areas
Description: The mutant F290K and the ASNPwt were tested on other D-GlcNAc derivatives (α-D-GlcpNAc-OMe, β-D-GlcpNAc-OMe, β-D-GlcpNAc-Oallyl and D-GlcNHTCA) used as potential acceptors. The enzymatic reaction was carried out using sucrose as donor and D-GlcNAc derivative as acceptor in a 1:1 ratio (146 mM)
Efficiency of the glucosylation reaction was evaluated by HPLC analysis of the acceptor reaction product synthesized a Biorad HPLC Carbohydrate Analysis column (HPX-87K column (300×7.8 mm))
Percentages of glucosylation rates were estimated according to peak areas as no reference was available.

B1: F290K: single mutant F290K of N. polysaccharea amylosucrase 1G5A (protein)
chain: SPNSQYLKTRILDIYTPEQRAGIEKSEDWRQFSRRMDTHFPKLMNELDSVYGNNEALLPMLEMLLAQAWQSYSQRNSSLKDIDIARENNPDWILSNKQVGGVCYVDLFAGDLKGLKDKIPYFQELGLTYLHLMPLFKCPEGKSDGGYAVSSYRDVNPALGTIGDLREVIAALHEAGISAVVDFIFNHTSNEHEWAQRCAAGDPLFDNFYYIFPDRRMPDQYDRTLREIFPDQHPGGFSQLEDGRWVWTTFNSFQWDLNYSNPWVFRAMAGEMLFLANLGVDILRMDAVAKIWKQMGTSCENLPQAHALIRAFNAVMRIAAPAVFFKSEAIVHPDQVVQYIGQDECQIGYNPLQMALLWNTLATREVNLLHQALTYRHNLPEHTAWVNYVRSHDDIGWTFADEDAAYLGISGYDHRQFLNRFFVNRFDGSFARGVPFQYNPSTGDCRVSGTAAALVGLAQDDPHAVDRIKLLYSIALSTGGLPLIYLGDEVGTLNDDDWSQDSNKSDDSRWAHRPRYNEALYAQRNDPSTAAGQIYQDLRHMIAVRQSNPRFDGGRLVTFNTNNKHIIGYIRNNALLAFGNFSEYPQTVTAHTLQAMPFKAHDLIGGKTVSLNQDLTLQPYQVMWLEIA
length of maltooligosaccharides synthesized in the absence of acceptor [1]: ≤ 20 DP | decrease of kcat/Km in the presence of sucrose alone ([2]; sucrose alone, compared with ASNPwt, linear regression): 40 fold | saturation with sucrose ([2]; sucrose varied between 0 and 600 mM): could not be saturated | increase of the efficiency of the mutant compared to ASNPwt [3]: 130 fold | glucosylation of acceptor D-GlcNHTCA [4]: > 95%
